{
  "source": "paper PMC12818765",
  "origin": "cited, not measured here",
  "key": {"Asp66": {"molecular_target": "Asp66 (UniProt position 84, RWWCNDGRTPG)"}, "Asp87": {"molecular_target": "Asp87 (UniProt position 105, ALLSSDITASV)"}, "His15": {"molecular_target": "His15 (UniProt position 33, AAMKRHGLDNY)"}, "Glu7": {"molecular_target": "Glu7 (UniProt position 25, VFGRCELAAAM)"}, "Lys96": {"molecular_target": "Lys96 (UniProt position 114, SVNCAKKIVSD)"}, "Lys33": {"molecular_target": "Lys33 (UniProt position 51, WVCAAKFESNF)"}, "Asp101": {"molecular_target": "Asp101 (UniProt position 119, KKIVSDGNGMN)"}, "Asp119": {"molecular_target": "Asp119 (UniProt position 137, RCKGTDVQAWI)"}, "Tyr53": {"molecular_target": "Tyr53 (UniProt position 71, DGSTDYGILQI)"}, "Nterm1": {"molecular_target": "Nterm1 (UniProt position 19, LAALGKVFGRC)"}, "Tyr23": {"molecular_target": "Tyr23 (UniProt position 41, DNYRGYSLGNW)"}, "Glu35": {"molecular_target": "Glu35 (UniProt position 53, CAAKFESNFNT)"}, "Asp18": {"molecular_target": "Asp18 (UniProt position 36, KRHGLDNYRGY)"}, "Lys13": {"molecular_target": "Lys13 (UniProt position 31, LAAAMKRHGLD)"}, "Asp52": {"molecular_target": "Asp52 (UniProt position 70, TDGSTDYGILQ)"}, "Lys1": {"molecular_target": "Lys1 (UniProt position 19, LAALGKVFGRC)"}, "Lys116": {"molecular_target": "Lys116 (UniProt position 134, WRNRCKGTDVQ)"}, "Lys97": {"molecular_target": "Lys97 (UniProt position 115, VNCAKKIVSDG)"}, "Tyr20": {"molecular_target": "Tyr20 (UniProt position 38, HGLDNYRGYSL)"}, "Cterm129": {"molecular_target": "Cterm129 (UniProt position 147, IRGCRL-----)"}, "Asp48": {"molecular_target": "Asp48 (UniProt position 66, TNRNTDGSTDY)"}, "Glu10": {"molecular_target": "Glu10 (UniProt position 92, KKLHKEPATLI)", "details": "not stated"}, "Glu75": {"molecular_target": "Glu75 (UniProt position 157, KKIEVEFDKGQ)", "details": "not stated"}, "Glu43": {"molecular_target": "Glu43 (UniProt position 125, LVDTPETKHPK)", "details": "not stated"}, "Asp95": {"molecular_target": "Asp95 (UniProt position 177, AYIYADGKMVN)", "details": "not stated"}, "Glu52": {"molecular_target": "Glu52 (UniProt position 134, PKKGVEKYGPE)", "details": "not stated"}, "Glu67": {"molecular_target": "Glu67 (UniProt position 149, TKKMVENAKKI)", "details": "not stated"}, "Glu73": {"molecular_target": "Glu73 (UniProt position 155, NAKKIEVEFDK)", "details": "not stated"}, "Asp40": {"molecular_target": "Asp40 (UniProt position 122, RLLLVDTPETK)", "details": "not stated"}, "Glu122": {"molecular_target": "Glu122 (UniProt position 204, PNNTHEQHLRK)", "details": "not stated"}, "Glu135": {"molecular_target": "Glu135 (UniProt position 217, AQAKKEKLNIW)", "details": "not stated"}, "Glu101": {"molecular_target": "Glu101 (UniProt position 183, GKMVNEALVRQ)", "details": "not stated"}, "Glu57": {"molecular_target": "Glu57 (UniProt position 139, EKYGPEASAFT)", "details": "not stated"}, "Glu129": {"molecular_target": "Glu129 (UniProt position 211, HLRKSEAQAKK)", "details": "not stated"}, "His46": {"molecular_target": "His46 (UniProt position 128, TPETKHPKKGV)", "details": "not stated"}, "His8": {"molecular_target": "His8 (UniProt position 90, STKKLHKEPAT)", "details": "not stated"}, "His124": {"molecular_target": "His124 (UniProt position 206, NTHEQHLRKSE)", "details": "not stated"}, "His121": {"molecular_target": "His121 (UniProt position 203, KPNNTHEQHLR)", "details": "not stated"}},
  "data": [
    {"substance": "Hen egg-white lysozyme (HEWL, lysozyme C) (Gallus gallus)", "values": [
      {"measurement": "pKa", "setting": "Asp66", "value": 0.90},
      {"measurement": "pKa", "setting": "Asp87", "value": 2.07},
      {"measurement": "pKa", "setting": "His15", "value": 5.36},
      {"measurement": "pKa", "setting": "Glu7", "value": 2.85},
      {"measurement": "pKa", "setting": "Lys96", "value": 10.80},
      {"measurement": "pKa", "setting": "Lys33", "value": 10.60},
      {"measurement": "pKa", "setting": "Asp101", "value": 4.09},
      {"measurement": "pKa", "setting": "Asp119", "value": 3.20},
      {"measurement": "pKa", "setting": "Tyr53", "value": 12.10},
      {"measurement": "pKa", "setting": "Nterm1", "value": 7.90},
      {"measurement": "pKa", "setting": "Tyr23", "value": 9.80},
      {"measurement": "pKa", "setting": "Glu35", "value": 6.20},
      {"measurement": "pKa", "setting": "Asp18", "value": 2.66},
      {"measurement": "pKa", "setting": "Lys13", "value": 10.60},
      {"measurement": "pKa", "setting": "Asp52", "value": 3.68},
      {"measurement": "pKa", "setting": "Lys1", "value": 10.90},
      {"measurement": "pKa", "setting": "Lys116", "value": 10.40},
      {"measurement": "pKa", "setting": "Lys97", "value": 10.30},
      {"measurement": "pKa", "setting": "Tyr20", "value": 10.30},
      {"measurement": "pKa", "setting": "Cterm129", "value": 2.75},
      {"measurement": "pKa", "setting": "Asp48", "value": 1.60}
    ]},
    {"substance": "Staphylococcal nuclease (SNase), form used for the Asp/Glu pKa values (Staphylococcus aureus)", "values": [
      {"measurement": "pKa", "setting": "Glu10", "value": 2.82},
      {"measurement": "pKa", "setting": "Glu75", "value": 3.26},
      {"measurement": "pKa", "setting": "Glu43", "value": 4.32},
      {"measurement": "pKa", "setting": "Asp95", "value": 2.16},
      {"measurement": "pKa", "setting": "Glu52", "value": 3.93},
      {"measurement": "pKa", "setting": "Glu67", "value": 3.76},
      {"measurement": "pKa", "setting": "Glu73", "value": 3.31},
      {"measurement": "pKa", "setting": "Asp40", "value": 3.87},
      {"measurement": "pKa", "setting": "Glu122", "value": 3.89},
      {"measurement": "pKa", "setting": "Glu135", "value": 3.76},
      {"measurement": "pKa", "setting": "Glu101", "value": 3.81},
      {"measurement": "pKa", "setting": "Glu57", "value": 3.49},
      {"measurement": "pKa", "setting": "Glu129", "value": 3.75}
    ]},
    {"substance": "Staphylococcal nuclease (SNase), form used for the histidine pKa values (Staphylococcus aureus)", "values": [
      {"measurement": "pKa", "setting": "His46", "value": 5.86},
      {"measurement": "pKa", "setting": "His8", "value": 6.52},
      {"measurement": "pKa", "setting": "His124", "value": 5.73},
      {"measurement": "pKa", "setting": "His121", "value": 5.30}
    ]}
  ]
}
